In paper doi:10.1101/2023.01.31.526478:

Target: SNAP-SPIN1 (human) (UniProt Q9Y657)
Test: FRET or BRET

Chain of UniProt Q9Y657 (Q9Y657 whole entry): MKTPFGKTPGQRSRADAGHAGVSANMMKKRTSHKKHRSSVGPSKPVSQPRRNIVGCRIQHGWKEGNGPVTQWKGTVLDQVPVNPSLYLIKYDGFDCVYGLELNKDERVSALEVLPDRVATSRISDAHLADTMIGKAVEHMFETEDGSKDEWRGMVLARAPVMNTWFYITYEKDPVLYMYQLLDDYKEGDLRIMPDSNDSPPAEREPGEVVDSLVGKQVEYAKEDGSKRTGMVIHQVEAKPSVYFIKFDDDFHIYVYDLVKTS

Halo-WDR76 (from UniProt Q9H967 1-626) (natural protein)
FRET efficiency: 2%
